Results from patent publication US20130295090A1 (US Dept. of Health and Human Services, published 2013).
Like-named read-outs stand apart in the source and are kept apart here.

Experiments:
[1] = target: T1, JEV strain SA14-14-2 envelope (E) protein on virions (Japanese encephalitis virus strain …, UniProt P0DOH7 295-794); assay: cell-based or functional assay
[2] = target: T1, JEV strain SA14-14-2 envelope (E) …; assay: ELISA on JEV virions, half maximum binding (FIG. 4A)
[3] = target: T1, JEV strain SA14-14-2 envelope (E) …; assay: ELISA on JEV virions captured with HMAF, half-maximal binding, Fab
[4] = target: T1, JEV strain SA14-14-2 envelope (E) …
[5] = target: T2, recombinant JEV N-terminal 80% E protein (Japanese encephalitis virus strain …, UniProt P0DOH7 295-692); assay: SPR (Biacore 3000), recombinant E immobilized, Fab in solution
[6] = target: T1, JEV strain SA14-14-2 envelope (E) …; assay: ELISA on JEV SA14-14-2 virions captured with HMAF
[7] = target: T1, JEV strain SA14-14-2 envelope (E) …; assay: ELISA, virion-coated plate; initial Fab ~100 µg/ml
[8] = target: E protein of wild type JEV strain JE 1991 (genotype I) (Japanese encephalitis virus strain JE …); assay: cell-based or functional assay
[9] = target: E protein of wild type JEV strain Beijing (genotype III) (Japanese encephalitis virus strain …); assay: cell-based or functional assay
[10] = target: E protein of wild type JEV strain JE B1034/8 (genotype II) (Japanese encephalitis virus strain JE …); assay: cell-based or functional assay
[11] = target: E protein of wild type JEV strain JKT 9092 (genotype IV) (Japanese encephalitis virus strain JKT …); assay: cell-based or functional assay
[12] = target: T1, JEV strain SA14-14-2 envelope (E) …; assay: cell-based or functional assay; remark: listed apart in the source
[13] = target: T1, JEV strain SA14-14-2 envelope (E) …; assay: ELISA on JEV virions captured with HMAF, half-maximal binding, MAb
[14] = target: T1, JEV strain SA14-14-2 envelope (E) …; assay: cell-based or functional assay; remark: listed apart in the source
[15] = target: T1, JEV strain SA14-14-2 envelope (E) …; assay: cell-based or functional assay; remark: listed apart in the source
[16] = target: T1, JEV strain SA14-14-2 envelope (E) …; remark: listed apart in the source
[17] = target: T1, JEV strain SA14-14-2 envelope (E) …; remark: listed apart in the source
[18] = target: T2, recombinant JEV N-terminal 80% E protein; assay: SPR, recombinant E immobilized

Row | Binder | PRNT50 titer [1] | EC50 [2] | Kd [3] | Kd [5] | koff [5] | kon [5] | EC50 (read off the curve) [6] | ELISA titer (1/log10 dilution) [7] | PRNT50 titer [8] | PRNT50 titer [9] | PRNT50 titer [10] | PRNT50 titer [11] | PRNT50 titer [12] | PRNT50 [14] | occupancy of accessible antibody sites on the virion for neutralization [15] | also measured
1 | Fab E3 (Fab, V domains shown) VH: EVQLLESGPGLVRPSQTLSLTCAVSGASISGPLSYWTWIRQSPGKKMEHIGSMFYSGNTYYNPSLKGRITMSVDTSRNQFSLNLNSVTVADTAVYFCARRRETELFGLPIDYWGQGILVTVSS VL: ELTQSPATLSVSPGERATLSCRASERISSSYLSWYQQKPGQAPRLLMYGTSTRATGIPARFSGSGSGTDFTLTISSLQPEDFAVYFCQQDYNLPWTFGQGTKLEIKR | 84.9 nM | 0.98 nM | 0.98 nM | 0.35 nM | 3.6e-05 s⁻¹ | 100000 M⁻¹ s⁻¹ | ~1 nM | 4.2 log10 reciprocal dilution | – | – | – | – | – | – | – | IC50 (read off the curve) [4]: ~7 nM
2 | humanized MAb E3 (antibody, V domains shown) VH: EVQLLESGPGLVRPSQTLSLTCAVSGASISGPLSYWTWIRQSPGKKMEHIGSMFYSGNTYYNPSLKGRITMSVDTSRNQFSLNLNSVTVADTAVYFCARRRETELFGLPIDYWGQGILVTVSS VL: ELTQSPATLSVSPGERATLSCRASERISSSYLSWYQQKPGQAPRLLMYGTSTRATGIPARFSGSGSGTDFTLTISSLQPEDFAVYFCQQDYNLPWTFGQGTKLEIKR | – | – | – | – | – | – | – | – | 0.21 nM | 0.71 nM | 0.14 nM | 0.36 nM | 0.93 nM | 0.09 µg/mL | 66% | Kd [13]: 0.31 nM
3 | Fab A3 (Fab, V domains shown) VH: EVQLLESGAEVKKPGSSVRISCKVSGTPYSSYVMNWVRQAPGQGLEWMGVFVPSLDRALYAQNFQGRLSITADTTTTYMELTSLKFEDTAVYYCATDFSVGWLRPLDRWGQGTLVTVSS VL: ELQMTQSPSSLSASVGDRVTITCRASQGISNYLAWYQQKPGKAPKLLIYYASRLESGVPSRFSGSGSGTDYTLTISSLQPEDFATYYCQQYNSNPFTFGPGTKVDIKR | 2.55 nM | 0.45 nM | 0.45 nM | 0.72 nM | 2.8e-05 s⁻¹ | 40000 M⁻¹ s⁻¹ | ~0.5 nM | 4.7 log10 reciprocal dilution | – | – | – | – | – | – | – | IC50 (read off the curve) [16]: ~6 nM
4 | humanized MAb A3 (antibody, V domains shown) VH: EVQLLESGAEVKKPGSSVRISCKVSGTPYSSYVMNWVRQAPGQGLEWMGVFVPSLDRALYAQNFQGRLSITADTTTTYMELTSLKFEDTAVYYCATDFSVGWLRPLDRWGQGTLVTVSS VL: ELQMTQSPSSLSASVGDRVTITCRASQGISNYLAWYQQKPGKAPKLLIYYASRLESGVPSRFSGSGSGTDYTLTISSLQPEDFATYYCQQYNSNPFTFGPGTKVDIKR | – | – | – | – | – | – | – | – | 0.04 nM | 0.2 nM | 0.04 nM | 0.07 nM | 0.2 nM | 0.04 µg/mL | 45% | –
5 | humanized MAb B2 (antibody, V domains shown) VH: VQLLEQSGSEVKKPGASVKVSCKASGYPFTDYAMSWVRQAPGQGLEYMGWIFTNSGNPTYAPGFAGRFVFSLDISVNTAYLHIDSLKPEDTAVYYCARGIVTPAASGDYFDSWGQGTLVTVSS VL: ELVLTQSPSSLSASIGDRVTITCRASQHISSWLAWYQQKPGKAPKPLIYAASSLKSGVPSRFSGSGSGTDFTLTISGLQPEDFATYYCQQYENSPVTFGGGTKVEIKR | – | – | – | – | – | – | – | – | 0.02 nM | 0.02 nM | 0.02 nM | 2 nM | 0.03 nM | 0.005 µg/mL | ~28% | –
6 | Fab B2 (Fab, V domains shown) VH: VQLLEQSGSEVKKPGASVKVSCKASGYPFTDYAMSWVRQAPGQGLEYMGWIFTNSGNPTYAPGFAGRFVFSLDISVNTAYLHIDSLKPEDTAVYYCARGIVTPAASGDYFDSWGQGTLVTVSS VL: ELVLTQSPSSLSASIGDRVTITCRASQHISSWLAWYQQKPGKAPKPLIYAASSLKSGVPSRFSGSGSGTDFTLTISGLQPEDFATYYCQQYENSPVTFGGGTKVEIKR | 0.25 nM | 0.28 nM | 0.28 nM | 110 nM | 0.0046 s⁻¹ | 42000 M⁻¹ s⁻¹ | ~0.2 nM | 4.2 log10 reciprocal dilution | – | – | – | – | – | – | – | IC50 (read off the curve) [17]: ~5 nM; fold faster off-rate than Fab A3 or E3 [18]: ≥ 120 fold; fold weaker Kd than Fab A3 or E3 [18]: ≥ 150 fold
